Data as given in the nanobody polyreactivity screen of Harvey et al. (2022).

Test: yeast display, Sf9 membrane polyspecificity reagent, FACS + sequencing; frameworks hold sequencing errors
How it was run: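 A synthetic nanobody library was expressed on Saccharomyces cerevisiae BJ5465 by galactose induction for 36–48 hours. The library was stained for 1 hour at 4 °C with 10% biotinylated, detergent-solubilized Sf9 membrane reagent and enriched with streptavidin microbeads before FACS. Low and high (top ~1%) gates were set on anti-HA fluorescence for expression and streptavidin fluorescence for reagent binding, and each polyreactivity label reflects the gate of origin.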
For “QVQLVESGGGLVQAGGTLRLSCASSGRIFYHYAMGWDRQAPGKERELVAAISTHTGTTYYADSVKGRFTISRDNAKNTVYLQMNSLKPEDTAVYYCAKRSRYGYGKSYDYWGQGTQVTVST”, the “polyreactivity (PSR sort gate)” value was “high polyreactivity”.
With “QVQLVESGGGLVQAGGTLRLSCDPSGRTFYYYAMGWYRQAPGKERELVATIRSTGSTNYADSVKGRFTISRDNAKNTVYLKMNSLKPEDTAVYYCAAKPLQGVRRVEYWGQGTQVTVSS” the “polyreactivity (PSR sort gate)” value was “high polyreactivity”.
In the case of “QVQLVESGGGLVQAGGTLRLSCSASGSTFAINAMGWYRQPPGKERELVATITSGSNTNNADSVKGRFTISRDNAKNTVDLQMNSLNPEDTAVYYCAAAFGYRFHYGYFYIYDYWGQGTQVTVSS”, the “polyreactivity (PSR sort gate)” value is reported as “high polyreactivity”.
With “QVQLVESGGGLVQAGGTLSLSCAASGRTFVSYTMGWYRQAPGKERELVAAINYSVASTNYADSVKGRFTISRDNAKNSVYLQMNSLKPEDTAVYYCNRASAVWGQGTQVTVSS” the “polyreactivity (PSR sort gate)” value was “low polyreactivity”.
In the case of “QVQLVESGGGLVQAGRSLRLICAASGFTFYSYAMGWYRQAPGKERELVANITIGGSTYADSVKGRFTISRDNAKNTVYLQMNSLKPEDTAVYYCARGYRVVGDPLYGDYDYWGQGTQVTVSS”, the “polyreactivity (PSR sort gate)” value is reported as “low polyreactivity”.
For “QVQLVESGGGLVQAGRSLRLNCAASGSIFYYYAMGWYRPAPGKERELVAAISRNGGSTSYADSVKGRFTISRDNAKNTVYLQMNSLKPEDTAVYYCNTYGGYKYDYWGQGTQVTVSS”, the “polyreactivity (PSR sort gate)” value was “low polyreactivity”.
With “QVQLVESGGGLVQAGRSLRLSCAASGFIYPYNALGWYRQAPGKERELVAGITWRGASTYYADSVKGRFTISRDNAKNSVYLQMNRLKPEDTAVDYCAAAYRRVTTKTFKLDYWGQGTQVTVSS” the “polyreactivity (PSR sort gate)” value was “high polyreactivity”.
For “QVQLVESGGGLVQAGRSLRLSCAASGITFDDYDMGCYRQAPGKEREFVAAISFSGSSTYYADSVKGRFTISRDNAKNTVYLLMNSLKPEDTAVYYCNADYVYSGCLYYGKDYWFDYWGHGTQVTVSS”, the “polyreactivity (PSR sort gate)” value was “low polyreactivity”.
With “QVQLVESGGGLVQAGRSLRLSCAASGITFQYYAMGGYRQAPGKERELVAAISSGGSTYYADSVKGRFTISRDNAKNTVYLQMNSLKPEDTAVYYCAAKRVFFGLNYDYWGQGTQVTVSS” the “polyreactivity (PSR sort gate)” value was “high polyreactivity”.
In the case of “QVQLVESGGGLVQAGRSLRLSCAASGITFYKNAMGWYRQAPGKERELVAAISSGGATTYADSVKGRFTISRDNAKNTVYLQMNSLKPEDSAVYYCAAVTRDYRNERRRQRYFYWGQGTQVTVSS”, the “polyreactivity (PSR sort gate)” value is reported as “high polyreactivity”.
With “QVQLVESGGGLVQAGRSLRLSCAASGLTFGQYAMGWYRQAPGIERELVAAMNWSGDGTYYADSVKGRFTISRDNAKNTVYLQMKSLKPEDTAVYYCNAGGRRYYYIGYDYWGQGTQLTVSS” the “polyreactivity (PSR sort gate)” value was “low polyreactivity”.
In the case of “QVQLVESGGGLVQAGRSLRLSCAASGLTFRVYPMGWYRQAPGKDRELVAAITGGGGSTYADSVKGRFTISRDNAKNTVYLQMYSLKPEDTAVSYCNKKGYYYKFDYWGQGTQVTVSS”, the “polyreactivity (PSR sort gate)” value is reported as “low polyreactivity”.
With “QVQLVESGGGLVQAGRSLRLSCAASGRIFNYYSMGWYRQAPGKERELVAAISSGGSTYYADSVKGRFTISRDYAKNTVYLQMNSLKPEDTAVYYCAAAYGDYGYWGQGTLVTVSS” the “polyreactivity (PSR sort gate)” value was “high polyreactivity”.
In the case of “QVQLVESGGGLVQAGRSLRLSCAASGRIFRGYAMGWYRPAPGIERELVAAISWSGGSTNYADSVKGRFTISRDNAKNSVYLQMNSLKPEDTEVYYCAARAYRVANAGYTYWGQGTQLTVSS”, the “polyreactivity (PSR sort gate)” value is reported as “high polyreactivity”.
For “QVQLVESGGGLVQAGRSLRLSCAASGRIFVPYVMGWYRQAPGKERELVASISDSDTSTYYADSVKGRFTISRDNAKNTVYVQMNSLKPEDTAVYYCNVDYWGQGTQVTVSS”, the “polyreactivity (PSR sort gate)” value was “low polyreactivity”.
With “QVQLVESGGGLVQAGRSLRLSCAASGRISTRYAMGWYRQAPGKERELVAAITIGTDTTYADSVKGRFTISRDNAKNTVYLQMNTLKPEDTAVYYCAAERYILARFEYWGQGTQVTVSS” the “polyreactivity (PSR sort gate)” value was “low polyreactivity”.
In the case of “QVQLVESGGGLVQAGRSLRLSCAASGRTSAYYAMGWYRQPPGKERELVAGITRGGRTNYADSVKGRFTISRDNAKNTVYLQLNSLKPEDTAVYYCAAKYVYYLNSRTSGYWGQGSQVTVSS”, the “polyreactivity (PSR sort gate)” value is reported as “high polyreactivity”.
For “QVQLVESGGGLVQAGRSLRLSCAASGSIFAWYGMGWYRQAPGKERELFAAISTDGSTNYADSVKGRFTISRDNAKNSVYLQMISLKREDTAVYYCAKKSSLYYPERFDYWGQGTQGTVSS”, the “polyreactivity (PSR sort gate)” value was “low polyreactivity”.
In the case of “QVQLVESGGGLVQAGRSLRLSCAASGSTFKVYAMGWYRQAPGKERELVAAISASDGSTYYPDSVKGRFTISRDNAKKTVYVQMYRLKPEDTAVYYFAAVLYSDKATYDYWGQGTQVTVSS”, the “polyreactivity (PSR sort gate)” value is reported as “low polyreactivity”.
In the case of “QVQLVESGGGLVQAGRSLRLSCAASGSTFPVNTMGWYRQAPGKDRELVAAITKNGANTYYADSVKGRFTISRDNAKNTVYLQMNSLKPEDTAVYYCAARYVYGKSYSRWLVELDYWGQGTQVTVSS”, the “polyreactivity (PSR sort gate)” value is reported as “low polyreactivity”.
With “QVQLVESGGGLVQAGRSLRLSCAASGSTFYAYTMGWYRKAPGKERELVAGISRRGGTTYYADSVKGRFTISRDNAKNTVYLQMNSLKPEDTAVYHCATRSWELGDYWGQGTQVTVSS” the “polyreactivity (PSR sort gate)” value was “low polyreactivity”.
For “QVQLVESGGGLVQAGRSLRLSCAASGSTFYGYAMGWYRQPPGKERELVAAITSSGGSTYYADSVKGRFTISRDNAKITVYVQLNSLKPEDTAVYYCNAKRAPWGTLYNYWGQGTQVTVSS”, the “polyreactivity (PSR sort gate)” value was “high polyreactivity”.
In the case of “QVQLVESGGGLVQAGRSLRLSCAASGSTILYYAMGWYRQAHGKERELVARITTRGSRTYYADSVKGRFTISRDNAKNTVYLQMNSLKPEDTAVYYCNKVRPGYGVTYLVGYWGQGTQVTVSS”, the “polyreactivity (PSR sort gate)” value is reported as “high polyreactivity”.
With “QVQLVESGGGLVQAGRSLRLSCAASGSTLLWNAMGWYRQAPGKERELVAVISWSGGSTYYGDSVKGRFTISRDNAKNTVYLQMNSLKPEDTAVYYCAHDYDGYVWDTEYDYWGQGTQVTVSS” the “polyreactivity (PSR sort gate)” value was “low polyreactivity”.
In the case of “QVQLVESGGGLVQAGRSLRLSCAASGSTYAKYAMGWYRQAPGKEREVVAVISRTGTITRYADSEKGRFTISRDNAKNTVYLQMNSLKPEDTAVYYCAATIRAYNQHGFLYPYYYWGQGNQVTVSS”, the “polyreactivity (PSR sort gate)” value is reported as “high polyreactivity”.
In the case of “QVQLVESGGGLVQAGRSLRLSCAASGYIFDTNAMGWYRQAPGKERELVAAITKSGGSTYYADSVKGRFTISRDNAKNTVYLHMNSLKPEDTAVYYCAARGTSKRWSLYDYWGQGTQVTVSS”, the “polyreactivity (PSR sort gate)” value is reported as “low polyreactivity”.
For “QVQLVESGGGLVQAGRSLRLSCAAYGYTFEFYAMGWYRQAPGKEREFVAGINSSGVTTYYADSVKGRFTIARDNAKYTVYLQMNSLKPVYSAVYYCAATDVVYTWFFLVYIPYDYWGQGTQVTVSS”, the “polyreactivity (PSR sort gate)” value was “low polyreactivity”.
In the case of “QVQLVESGGGLVQAGRTLRLSCAASGNIFDLNAMGWYRPAPGKERELVAAIDRGGGSTYYADSVKGRFTISRDNATNTVYLHMNSLKTEDTAVYYCSAVDQESNPAGGYWGQGSQVTVSS”, the “polyreactivity (PSR sort gate)” value is reported as “low polyreactivity”.
With “QVQLVESGGGLVQAGSSLRLSCAASGRTFTGNAMGRYRQAPGKERELVADISSDGSTNYADSVKGRFTISRDNAKNTVYLQMNSLKPEDTAVYYCAADPFWTYYIDYDYWGQGTQVTVSS” the “polyreactivity (PSR sort gate)” value was “low polyreactivity”.
For “QVQLVESGGGLVQAGSSLRLSCAASGSTLRTNAMGWYRQAPGKEREFVADISKRGGRTYYADSVKGRFTISRDNAKNTVYLQMNSLKPEDTAVYYCAKLVSLAGRIYGYWGQGTQVTVSS”, the “polyreactivity (PSR sort gate)” value was “high polyreactivity”.
With “QVQLVESGGGLVQAGVILRLSCAASGLIFGLYAMGWYRQAPGKERELVAAISYRTDSTYADSVKGRFTISRDNAKNTVYLQMNSLKPEDTAVYYCAADLRVSVRYYYWGQGTQVTVSS” the “polyreactivity (PSR sort gate)” value was “low polyreactivity”.
In the case of “QVQLVESGGGLVQAGVRLRLSCPASGFIFDWYTMGWYRQAPGKERELVAAITIGGSTDYADSVKGRFTISRDNAKNTVYLQMNSLKPEDTAVYYCNALWYLSGTWYDYWGQGTQVTVSS”, the “polyreactivity (PSR sort gate)” value is reported as “low polyreactivity”.
With “QVQLVESGGGLVQAGVSLLISCAASGSTFLLNTMGWYIQAPGKERELVAAISSITGDTYYADSVKVRFTISRDNAKNNDYLQMNSLKPEDTAVYYCAARYYLSSQGWTYDYWGQGTQVTVSS” the “polyreactivity (PSR sort gate)” value was “low polyreactivity”.
For “QVQLVESGGGLVQAGVSLLLSCAASGSTFGYNAMVCYRQAPGKERELVAAITSSGSTTYYADSVKGRFTISRDNAKNSVYLQLNSLKREDTAVYYCNAPAYYLHYGLYARYDYWGQGTQVTVSS”, the “polyreactivity (PSR sort gate)” value was “low polyreactivity”.
For “QVQLVESGGGLVQAGVSLRISCAASGGTLNGYAMGWYRQSPGKERELVAVITSGGSTNYADSVKGLFTISRDNAKNTVYLQMNSLKPEDTAVYYCAVRPYELHRLADQPGGDDYWGQGTQVTVSS”, the “polyreactivity (PSR sort gate)” value was “low polyreactivity”.
With “QVQLVESGGGLVQAGVSLRISCAASVRTFSRYTMGWYRPAPGKERELVAANSGDGASTYYADSVKGRFTISRDNAKYSVYLQMYSLKPEDTAVYYCAARGTRYWDYRYYAYNYWGQGTQVTVSS” the “polyreactivity (PSR sort gate)” value was “high polyreactivity”.
For “QVQLVESGGGLVQAGVSLRLSCAASARIFSGYAMGWYRQAPGKEREFVAAITSSGRTKYADSVKGRFTISRDNATNTVYLQMNSLKPEDTAVYYCAAYFGYDWPEYDYWRQGTQVTVSS”, the “polyreactivity (PSR sort gate)” value was “high polyreactivity”.
With “QVQLVESGGGLVQAGVSLRLSCAASGFIFFPYVMGWYRQAPGKERELVARNTSGGGSTYYADSVKGRFTISRDNAKNTVYIQMNSLKPEDTAGYYCKARRIWYQSTFNYWGQGTQVTVSS” the “polyreactivity (PSR sort gate)” value was “high polyreactivity”.
For “QVQLVESGGGLVQAGVSLRLSCAASGFIFWFYAMGWYRQAPGKERELVAAINWSGSYTYYADSVKARFTISRDNAKNTVYLQMNSLKPEDTAVYYCNALFSYGYWRVRYNYWGQGTQVTVSS”, the “polyreactivity (PSR sort gate)” value was “high polyreactivity”.
In the case of “QVQLVESGGGLVQAGVSLRLSCAASGFTFYPYAMGWYRQAPGKERELVAAISYSGGRTYADSVKGRFTISRDNAKNTVYLQMNSLKPEDTAVYYCAADWTVLVYPYYHEYDYWGQGTQVTVSS”, the “polyreactivity (PSR sort gate)” value is reported as “low polyreactivity”.
With “QVQLVESGGGLVQAGVSLRLSCAASGIIFAGYVMGWYRQAPGKARELVAAISYRGGSTNYADSVKGRFTISRDNAKNTVYLQMNSLKPEDTAVYYCNRYSRDSRYGYLKFGYDYWGQGTQVTVSS” the “polyreactivity (PSR sort gate)” value was “high polyreactivity”.
With “QVQLVESGGGLVQAGVSLRLSCAASGINFTRYAMGWYRQAPGKERELVAAITRNGVSTYYADSVKGRFTISRDIAKNSVYLQMKSLKPEDTAVYYCNTFVLRRYAYCYWGQGTQVTVSS” the “polyreactivity (PSR sort gate)” value was “high polyreactivity”.
For “QVQLVESGGGLVQAGVSLRLSCAASGLTLRPYTMGWYRQAPGKERELVAAITGRGGRTHYADSVKGRFTISRDNAKNTVYLQMNSLKPEDTAVYYCAAAARVYVKVGYNYWGQGTQVTVSS”, the “polyreactivity (PSR sort gate)” value was “high polyreactivity”.
